Values of other authors as cited in patent publication US20030003565A1, “Functional lentiviral vector from an MLV-based backbone” (priority 2000, published 2003).

Settings: patients with septic shock, constant infusion for three days; 44% with placebo infusions

B1: IL-1R: recombinant IL-1R given as constant infusion to patients with septic shock (protein, UniProt P14778 18-336, looked up)
extracellular domain: LEADKCKEREEKIILVSSANEIDVRPCPLNPNEHKGTITWYKDDSKTPVSTEQASRIHQHKEKLWFVPAKVEDSGHYYCVVRNSSYCLRIKISAKFVENEPNLCYNAQAIFKQKLPVAGDGGLVCPYMEFFKNENNELPKLQWYKDCKPLLLDNIHFSGVKDRLIVMNVAEKHRGNYTCHASYTYLGKQYPITRVIEFITLEENKPTRPVIVSPANETMEVDLGSQIQLICNVTGQLSDIAYWKWNGSVIDEDDPVLGEDYYSVENPANKRRSTLITVLNISEIESRFYKHPFTCFAKNTHGIDAAYIQLIYPVTNFQK
modifications: extracellular domain
28 day mortality: 16%
